# From IntAct's records for PubMed 31663853
# B1: Protein phosphatase 1H (Homo sapiens), Q9ULR3 (parent)
# chain: MLTRVKSAVANFMGGIMAGSSGSEHGGGSCGGSDLPLRFPYGRPEFLGLSQDEVECSADHIARPILILKETRRLPWATGYAEVINAGKSTHNEDQASCEVLTVKKKAGAVTSTPNRNSSKRRSSLPNGEGLQLKENSESEGVSCHYWSLFDGHAGSGAAVVASRLLQHHITEQLQDIVDILKNSAVLPPTCLGEEPENTPANSRTLTRAASLRGGVGAPGSPSTPPTRFFTEKKIPHECLVIGALESAFKEMDLQIERERSSYNISGGCTALIVICLLGKLYVANAGDSRAIIIRNGEIIPMSSEFTPETERQRLQYLAFMQPHLLGNEFTHLEFPRRVQRKELGKKMLYRDFNMTGWAYKTIEDEDLKFPLIYGEGKKARVMATIGVTRGLGDHDLKVHDSNIYIKPFLSSAPEVRIYDLSKYDHGSDDVLILATDGLWDVLSNEEVAEAITQFLPNCDPDDPHRYTLAAQDLVMRARGVLKDRGWRISNDRLGSGDDISVYVIPLIHGNKLS
# Variants of: B1
# Details: with rab10_human RAB10, P61026
# Sequence of rab10_human RAB10, P61026 (P61026 whole entry): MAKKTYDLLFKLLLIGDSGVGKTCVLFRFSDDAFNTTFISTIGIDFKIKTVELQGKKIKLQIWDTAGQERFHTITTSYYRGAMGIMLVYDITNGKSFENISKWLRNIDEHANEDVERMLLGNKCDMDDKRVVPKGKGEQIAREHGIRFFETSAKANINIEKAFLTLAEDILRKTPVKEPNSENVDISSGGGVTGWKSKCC
row,Variant,effect of a mutation on the interaction
1,MLTRVKSAVANFMGGIMAGSSGSEHGGGSCGGSDLPLRFPYGRPEFLGLSQDEVECSADHIARPILILKETRRLPWATGYAEVINAGKSTHNEDQASCEVLTVKKKAGAVTSTPNRNSSKRRSSLPNGEGLQLKENSESEGVSCHYWSLFDGHAGSGAAVVASRLLQHHITEQLQDIVDILKNSAVLPPTCLGEEPENTPANSRTLTRAASLRGGVGAPGSPSTPPTRFFTEKKIPHECLVIGALESAFKEMDLQIERERSSYNISGGCTALIVICLLGKLYVANAGASRAIIIRNGEIIPMSSEFTPETERQRLQYLAFMQPHLLGNEFTHLEFPRRVQRKELGKKMLYRDFNMTGWAYKTIEDEDLKFPLIYGEGKKARVMATIGVTRGLGDHDLKVHDSNIYIKPFLSSAPEVRIYDLSKYDHGSDDVLILATDGLWDVLSNEEVAEAITQFLPNCDPDDPHRYTLAAQDLVMRARGVLKDRGWRISNDRLGSGDDISVYVIPLIHGNKLS [D288A],causing an interaction
2,MLTRVKSAVANFMGGIMAGSSGSEHGGGSCGGSDLPLRFPYGRPEFLGLSQDEVECSADHIARPILILKETRRLPWATGYAEVINAGKSTHNEDQASCEVLTVKKKAGAVTSTPNRNSSKRRSSLPNGEGLQLKENSESEGVSCHYWSLFDGHAGSGAAVVASRLLQHHITEQLQDIVDILKNSAVLPPTCLGEEPENTPANSRTLTRAASLRGGVGAPGSPSTPPTRFFTEKKIPHECLVIGALESAFKEMDLQIERERSSYNISGGCTALIVICLLGKLYVANAGESRAIIIRNGEIIPMSSEFTPETERQRLQYLAFMQPHLLGNEFTHLEFPRRVQRKELGKKMLYRDFNMTGWAYKTIEDEDLKFPLIYGEGKKARVMATIGVTRGLGDHDLKVHDSNIYIKPFLSSAPEVRIYDLSKYDHGSDDVLILATDGLWDVLSNEEVAEAITQFLPNCDPDDPHRYTLAAQDLVMRARGVLKDRGWRISNDRLGSGDDISVYVIPLIHGNKLS [D288E],causing an interaction
